Source: US20180127513A1 (published 2018)
Changes are numbered by the printed parent chain. In names and notes the source's numbering stands.

T1: human CD73 on cells (UniProt P21589 27-549)
T1 chain: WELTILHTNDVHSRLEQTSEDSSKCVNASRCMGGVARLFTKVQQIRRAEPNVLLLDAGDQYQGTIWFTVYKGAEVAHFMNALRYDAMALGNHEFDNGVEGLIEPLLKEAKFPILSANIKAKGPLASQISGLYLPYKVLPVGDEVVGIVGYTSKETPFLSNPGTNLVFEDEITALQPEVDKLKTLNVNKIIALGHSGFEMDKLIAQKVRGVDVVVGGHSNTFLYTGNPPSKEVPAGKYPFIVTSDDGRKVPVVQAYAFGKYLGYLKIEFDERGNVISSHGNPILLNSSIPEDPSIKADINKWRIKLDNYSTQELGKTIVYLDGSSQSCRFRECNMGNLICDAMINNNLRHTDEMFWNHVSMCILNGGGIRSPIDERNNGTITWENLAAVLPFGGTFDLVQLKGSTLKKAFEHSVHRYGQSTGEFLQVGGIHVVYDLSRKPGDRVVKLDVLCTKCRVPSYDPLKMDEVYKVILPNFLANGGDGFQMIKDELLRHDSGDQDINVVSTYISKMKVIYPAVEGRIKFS

B1: CD73.4-IgG2-C219S-IgG1.1f (antibody)
heavy: QVQLVESGGGVVQPGRSLRLSCAASGFTFSNYGMHWVRQAPGKGLEWVAVILYDGSNKYYPDSVKGRFTISRDNSKNTLYLQMNSLRAEDTAVYYCARGGSSWYPDSFDIWGQGTMVTVSSASTKGPSVFPLAPCSRSTSESTAALGCLVKDYFPEPVTVSWNSGALTSGVHTFPAVLQSSGLYSLSSVVTVPSSNFGTQTYTCNVDHKPSNTKVDKTVERKSCVECPPCPAPPVAGPSVFLFPPKPKDTLMISRTPEVTCVVVDVSHEDPEVKFNWYVDGVEVHNAKTKPREEQYNSTYRVVSVLTVLHQDWLNGKEYKCKVSNKALPSSIEKTISKAKGQPREPQVYTLPPSREEMTKNQVSLTCLVKGFYPSDIAVEWESNGQPENNYKTTPPVLDSDGSFFLYSKLTVDKSRWQQGNVFSCSVMHEALHNHYTQKSLSLSPG
light: not shown
modifications: N-terminal Gln 94% pyro-Q; 97% of heavy chains lack the C-terminal Lys
B2: CD73.4-IgG2-C219S (antibody)
heavy: B1 heavy with K274Q, Y296F, Y300F, L309V, A327G, S330A, S331P, A339T, V397M
light: not shown
B3: CD73.10-IgG2-C219S-IgG1.1f (antibody)
heavy: B1 heavy with L52W, G55E
light: not shown
B4: CD73.10-IgG2-C219S (antibody)
heavy: QVQLVESGGGVVQPGRSLRLSCAASGFTFSNYGMHWVRQAPGKGLEWVAVIWYDESNKYYPDSVKGRFTISRDNSKNTLYLQMNSLRAEDTAVYYCARGGSSWYPDSFDIWGQGTMVTVSSASTKGPSVFPLAPCSRSTSESTAALGCLVKDYFPEPVTVSWNSGALTSGVHTFPAVLQSSGLYSLSSVVTVPSSNFGTQTYTCNVDHKPSNTKVDKTVERKSCVECPPCPAPPVAGPSVFLFPPKPKDTLMISRTPEVTCVVVDVSHEDPEVQFNWYVDGVEVHNAKTKPREEQFNSTFRVVSVLTVVHQDWLNGKEYKCKVSNKGLPAPIEKTISKTKGQPREPQVYTLPPSREEMTKNQVSLTCLVKGFYPSDIAVEWESNGQPENNYKTTPPMLDSDGSFFLYSKLTVDKSRWQQGNVFSCSVMHEALHNHYTQKSLSLSPG
light: not shown
B5: 11F11 (antibody, V domains shown)
VH: QVQLVESGGGVVQPGRSLRLSCATSGFTFSNYGMHWVRQAPGKGLEWVAVILYDGSNKYYPDSVKGRFTISRDNSKNTLYLQMNSLRAEDTAVYYCARGGSSWYPDSFDIWGQGTMVTVSS
VL: DIQMTQSPSSLSASVGDRVTITCRASQGISSWLAWYQQKPEKAPKSLIYAASSLQSGVPSRFSGSGSGTDFTLTISSLQPEDFATYYCQQYNSYPLTFGGGTKVEIKR

Target: T1, human CD73 on cells
Assay: FACS cell binding; Calu6 cells

Binder | Kd
B1 | 0.0964 µg/mL
B2 | 0.0826 µg/mL
B3 | 0.156 µg/mL
B4 | 0.162 µg/mL
B5 | 0.188 µg/mL
